Assay [1] concerns the target H4-Fc (anti-FAP VNAR H4 fused to the Fc of human IgG1) (nurse shark (Ginglyomostoma cirratum)). The experiment in a line: BLI.
Assay [2] concerns the target NGS2405-Fc (anti-FAP VNAR NGS2405 fused to the Fc of human IgG1) (nurse shark (Ginglyomostoma cirratum)). The experiment in a line: BLI. In general terms: In BLI a coated tip is dipped into the sample, and binding shifts an interference pattern.

One may read the Kd as the concentration at which binding is half-saturated. A low value points to a tighter complex.

B1: recombinant mouse FAP (mFAP) (enzyme)
chain: MKTWLKTVFGVTTLAALALVVICIVLRPSRVYKPEGNTKRALTLKDILNGTFSYKTYFPNWISEQEYLHQSEDDNIVFYNIETRESYIILSNSTMKSVNATDYGLSPDRQFVYLESDYSKLWRYSYTATYYIYDLQNGEFVRGYELPRPIQYLCWSPVGSKLAYVYQNNIYLKQRPGDPPFQITYTGRENRIFNGIPDWVYEEEMLATKYALWWSPDGKFLAYVEFNDSDIPIIAYSYYGDGQYPRTINIPYPKAGAKNPVVRVFIVDTTYPHHVGPMEVPVPEMIASSDYYFSWLTWVSSERVCLQWLKRVQNVSVLSICDFREDWHAWECPKNQEHVEESRTGWAGGFFVSTPAFSQDATSYYKIFSDKDGYKHIHYIKDTVENAIQITSGKWEAIYIFRVTQDSLFYSSNEFEGYPGRRNIYRISIGNSPPSKKCVTCHLRKERCQYYTASFSYKAKYYALVCYGPGLPISTLHDGRTDQEIQVLEENKELENSLRNIQLPKVEIKKLKDGGLTFWYKMILPPQFDRSKKYPLLIQVYGGPCSQSVKSVFAVNWITYLASKEGIVIALVDGRGTAFQGDKFLHAVYRKLGVYEVEDQLTAVRKFIEMGFIDEERIAIWGWSYGGYVSSLALASGTGLFKCGIAVAPVSSWEYYASIYSERFMGLPTKDDNLEHYKNSTVMARAEYFRNVDYLLIHGTADDNVHFQNSAQIAKALVNAQVDFQAMWYSDQNHGISSGRSQNHLYTHMTHFLKQCFSLSD
modifications: biotin (EZ-link NHS-PEG4-biotin)
Regarding B1, the Kd in assay [1] stood at 0.0142 µM; in assay [2], 0.0795 µM.

These data come from publication PMC12350670 (2025).
